Source: article doi:10.1101/2023.09.20.558696

Key:
Test in all cases: co-IP
[1] = target: LtPP1-8e 109-134Δ, Pd-tagged (L. tarentolae)
[2] = target: LtPP1-8e D292A, Pd-tagged (L. tarentolae)
[3] = target: LtPP1-8e I217A, Pd-tagged (L. tarentolae)
[4] = target: LtPP1-8e 310DHK312 to alanine, Pd-tagged (L. tarentolae)
[5] = target: LtPP1-8e I360A, Pd-tagged (L. tarentolae)
[6] = target: LtPP1-8e 260LP261 to alanine, Pd-tagged (L. tarentolae)
[7] = target: LtPP1-8e 263-265A, Pd-tagged (L. tarentolae)
[8] = target: LtPP1-8e CΔ23, Pd-tagged (L. tarentolae)
[9] = target: LtPP1-8e 359-362A, Pd-tagged (L. tarentolae)
[10] = target: LtPP1-8e CΔ11, Pd-tagged (L. tarentolae)
[11] = target: LtPP1-8e 109-114A, Pd-tagged (L. tarentolae)
[12] = target: LtPP1-8e F305A, Pd-tagged (L. tarentolae)
[13] = target: LtPP1-8e 354-358A, Pd-tagged (L. tarentolae)
[14] = target: LtPP1-8e D290A, Pd-tagged (L. tarentolae)
[15] = target: LtPNUTS R94A, Pd-tagged (L. tarentolae)
[16] = target: LtPNUTS V97A, Pd-tagged (L. tarentolae)
[17] = target: LtPNUTS D101A, Pd-tagged (L. tarentolae)
[18] = target: LtPNUTS L111A, Pd-tagged (L. tarentolae)

| Substance | reduction of co-IP against WT PP1-8e [1] [%] | reduction of co-IP against WT PP1-8e [2] [%] | reduction of co-IP against WT PP1-8e [3] [%] | decrease of co-IP against WT PP1-8e [4] [%] | reduction of co-IP against WT PP1-8e [5] [%] | reduction of co-IP against WT PP1-8e [6] [%] | reduction of co-IP against WT PP1-8e [7] [%] | loss of co-IP against WT PP1-8e [8] [%] | reduction of co-IP against WT PP1-8e [9] [%] | reduction of co-IP against WT PP1-8e [10] [%] | reduction of co-IP against WT PP1-8e [11] [%] | reduction of co-IP against WT PP1-8e [12] [%] | reduction of co-IP against WT PP1-8e [13] [%] | reduction of co-IP against WT PP1-8e [14] [%] | reduction of co-IP against WT PNUTS [15] [%] | fold decrease of co-IP against WT PNUTS [16] [fold] | decrease of co-IP against WT PNUTS [17] [%] | reduction of co-IP against WT PNUTS [18] [%] |
| --- | --- | --- | --- | --- | --- | --- | --- | --- | --- | --- | --- | --- | --- | --- | --- | --- | --- | --- |
| LtPNUTS, endogenously HA-tagged (natural protein) | 80 | 60 | 50 | 20 | 80 | 80 | 90 | 80 | 80 | 30 | 80 | 80 | 50 | 50 | – | – | – | – |
| LtPP1-8e, endogenously HA-tagged (enzyme) | – | – | – | – | – | – | – | – | – | – | – | – | – | – | 50 | 5 | 80 | 80 |
